Consider one molecule from publication PMC5948177 (Science (New York, N.Y.), 2018).

Data set [1] concerns the target T1, a-subunit of the yeast ATP synthase Fo (yeast (strain W303-1A background), UniProt P00854 11-259).
T1 sequence (looked up): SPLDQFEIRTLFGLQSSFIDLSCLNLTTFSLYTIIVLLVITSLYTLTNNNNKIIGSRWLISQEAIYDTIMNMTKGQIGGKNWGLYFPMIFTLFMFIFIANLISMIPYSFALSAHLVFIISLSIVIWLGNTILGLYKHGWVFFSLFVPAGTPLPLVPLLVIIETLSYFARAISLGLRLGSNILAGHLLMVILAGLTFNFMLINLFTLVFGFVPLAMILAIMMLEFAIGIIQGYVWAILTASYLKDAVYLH
Put plainly: cryo-EM structure.

The data set “cryo-EM structure” deals with the molecule itself. Put plainly: cryo-EM structure.

As a reminder, the stoichiometry N is a count of units in the complex or per binding partner.

B1: c-subunit of the yeast ATP synthase Fo (c10-ring) (natural protein, yeast (strain W303-1A background), UniProt P61829 1-76, looked up)
chain: MQLVLAAKYIGAGISTIGLLGAGIGIAIVFAALINGVSRNPSIKDTVFPMAILGFALSEATGLFCLMVSFLLLFGV
As to B1, the binding result in data set [1] was “binds”. Also, the “stoichiometry N” value in “cryo-EM structure” came to 10.
